{"source": "patent US9260517B2", "about": "“Human monoclonal antibodies to human nucleolin” (MUSC Foundation for Research Development, priority 2009, dated 2016)", "key": {"[1]": {"target": "T1, cell surface nucleolin on MV4-11 AML cells (Homo sapiens, UniProt P19338)", "T1 construct": "endogenous in cells; host or cells: MV4-11 cells", "T1 sequence (P19338 whole entry)": "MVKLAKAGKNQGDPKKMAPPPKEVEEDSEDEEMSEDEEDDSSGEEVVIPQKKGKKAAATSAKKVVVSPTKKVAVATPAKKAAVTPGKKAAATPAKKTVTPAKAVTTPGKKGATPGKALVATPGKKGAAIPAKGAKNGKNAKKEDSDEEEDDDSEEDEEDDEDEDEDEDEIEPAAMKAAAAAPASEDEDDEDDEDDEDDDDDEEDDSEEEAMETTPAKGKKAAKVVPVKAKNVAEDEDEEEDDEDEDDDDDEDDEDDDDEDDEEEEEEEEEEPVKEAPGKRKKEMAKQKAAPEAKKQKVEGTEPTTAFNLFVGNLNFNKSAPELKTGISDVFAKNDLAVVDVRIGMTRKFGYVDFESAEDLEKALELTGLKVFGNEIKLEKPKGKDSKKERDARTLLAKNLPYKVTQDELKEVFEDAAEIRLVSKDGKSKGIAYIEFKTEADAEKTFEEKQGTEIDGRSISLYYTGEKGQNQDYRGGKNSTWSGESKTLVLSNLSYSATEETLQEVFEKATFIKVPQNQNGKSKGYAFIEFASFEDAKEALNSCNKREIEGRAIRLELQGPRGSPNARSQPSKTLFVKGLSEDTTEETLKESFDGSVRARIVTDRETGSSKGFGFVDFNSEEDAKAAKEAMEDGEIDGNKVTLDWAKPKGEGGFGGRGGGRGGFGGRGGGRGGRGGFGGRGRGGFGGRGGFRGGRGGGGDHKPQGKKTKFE", "experiment": "Flow cytometry (FACS) binding to MV4-11 cells", "settings": "5 μg/ml, 30 min on ice", "method": "(§1) FIG. 12. Binding of HuMAbs to cell surface nucleolin and cytotoxicity to MV4-11 leukemia cells. (FIG. 12A) Anti-nucleolin HuMabs or Rituxan^R (5 μg/ml) were incubated with MV4-11 or normal tonsil cells for 30 min on ice, washed, then incubated with APC-labeled anti-human IgG (Miltenyi). Flow cytometry was performed on a FACSCaliber, and median fluorescence intensity (MFI) is shown.\nanalysis was performed using a Becton Dickinson FACSCalibur instrument at the MUSC Flow Cytometry Facility, according to established methods. Infection efficiency of B cells infected with […] was assessed by measuring fluorescence of Green Fluorescent Protein 24 h post-infection. Antibodies used to characterize human B cells were obtained from BD Biosciences and are specific for human CD20, CD19, CD23, CD27, CD30, CD38, IgD, IgM, and IgG."}, "normal tonsil cells": {"system": "normal tonsil cells", "experiment": "Flow cytometry binding to normal tonsil cells", "design": "species or system human", "settings": "5 μg/ml, 30 min on ice", "method": "as §1"}}, "data": [{"substance": "rituximab", "values": [{"measurement": "binding to MV4-11 cells by flow cytometry", "setting": "[1]", "result": "not to MV4-11 cells"}, {"measurement": "binding to normal tonsil cells by flow cytometry", "setting": "normal tonsil cells", "result": "bound to normal tonsil cells"}]}]}
